Values joined by “and” are separate entries in the source; they are usually repeats but may differ in a detail not shown here. Equal entries are not always repeated. Where two headings read alike, the source gives them in different places.
Assays:
[1] = biological target: purified recombinant HA protein of H5N1 (A/Vietnam/1203/04) (Influenza A virus A/Vietnam/1203/04 (H5N1))
[2] = biological target: purified recombinant HA protein of H5N1 (A/Vietnam/1203/04) (Influenza A virus A/Vietnam/1203/04 (H5N1)); assay: SPR, Biacore T200, HA captured via anti-6x his tag antibody, 25 C
[3] = biological target: purified recombinant HA protein of H1N1 (A/Ohio/07/09) (Influenza A virus A/Ohio/07/09 (H1N1)); assay: as above
[4] = biological target: purified recombinant HA protein of H1N1 (A/Texas/05/09) (Influenza A virus A/Texas/05/09 (H1N1)); assay: as above
[5] = biological target: purified recombinant HA protein of H1N1 (A/Texas/05/09) (Influenza A virus A/Texas/05/09 (H1N1))
[6] = biological target: purified recombinant HA protein of H1N1 (A/Ohio/07/09) (Influenza A virus A/Ohio/07/09 (H1N1))
[7] = biological target: HA of A/Wisconsin/67/05 (H3N2) virus (Influenza A virus A/Wisconsin/67/05 (H3N2)); assay: cell-based or functional assay
[8] = biological target: HA of A/Hong Kong/68 (H3N2) virus (Influenza A virus A/Hong Kong/68 (H3N2)); assay: cell-based or functional assay
[9] = biological target: HA of A/Brisbane/10/07 (H3N2) virus (Influenza A virus A/Brisbane/10/07 (H3N2)); assay: cell-based or functional assay

| Binder | Kd [1] [nM] | Kd [2] | koff [2] [s⁻¹] | Kd [3] | koff [3] | kon [3] | Kd [4] | koff [4] | kon [4] | Kd [5] [nM] | Kd [6] [nM] | MN test: lowest antibody concentration at which no virus antigen was detected [7] [µg/mL] | MN test: lowest antibody concentration at which no virus antigen was detected [8] [µg/mL] | MN test: lowest antibody concentration at which no virus antigen was detected [9] [µg/mL] |
| --- | --- | --- | --- | --- | --- | --- | --- | --- | --- | --- | --- | --- | --- | --- |
| CT120 (antibody, V domains shown) VH: QVQLVQSGAEVKMPGSSVKVSCKTSGVFFSSHAISWVRQAPGQGLEWMGGISPMFGTTHYAQKFQGRVTITADQSTTTAYMELTSLTSEDTAVYYCARDGAGSYYPLNWFDPWGQGTLVTVSS VL: EIVLTQSPATLSLSPGERATLSCRASENIWNNLAWYQQKPGQAPRLLISGASTGATGVPSRFRGSGSRTEFTLTISSLQSEDFAIYFCQQYNSWPRTFGPGTKVEIKR | 3.97 | 3.74 nM and 4.2 nM | 3.88 | 1.76 nM and 2.24 nM | 0.000663 s⁻¹ and 0.000789 s⁻¹ | 376000 M⁻¹ s⁻¹ and 352000 M⁻¹ s⁻¹ | 1.97 nM and 1.55 nM | 0.00119 s⁻¹ and 0.00098 s⁻¹ | 606000 M⁻¹ s⁻¹ and 632000 M⁻¹ s⁻¹ | 1.76 | 2 | – | – | – |
| CT164 (antibody, V domains shown) VH: QVQLVQSGVEVKKPGASVKVSCKTSGYPFSTYGVSWVRQAPGQGLEWVGWISGYTGITDYAQKSQGRVTLTTDASTATAFLELRSLRPDDTATYFCARDKVQGRVEAGSGGRHDYWGQGTLVIVSS VL: EVVLTQSPGTLTLPPGDRATLSCRASHSVGSTYIAWFQQKSGQAPRRLIYGASNRATDIPDRFSGSGSGTDFTLTIRRLEPEDSAVYYCQQFSVSPWTFGQGTRVEIKR | – | – | – | – | – | – | – | – | – | – | – | 2.5 | 1.25 | 0.625 |
| CT166 (antibody, V domains shown) VH: QVQLVQSGAEVKKPGASVKVSCKTSGYSFSTYGVSWVRQAPGQGLEWVGWISGYTGITDYAQKFQGRVTLTTDATTATAFLELRSLRPDDTATYFCARDKVQGRVEVGSGGRHDYWGQGTLVIVSS VL: EVVLTQSPGTLALPPGERATLSCRASHSIGSTYIAWYQQKSGQAPRRLIYGASNRASDIPDRFSGSGSGTDFTLTIRRLEPEDSAVYYCQQFSVSPWTFGQGTRVEIKR | – | – | – | – | – | – | – | – | – | – | – | 5 | 2.5 | 1.25 |

— patent US20160052997A1
